Results reported in publication PMC9910460 (Proceedings of the National Academy of Sciences of the …, 2022).

Target: TF-Mec1 1–500aa (Saccharomyces cerevisiae, UniProt P38111 1-500)
Test: pull-down

Chain of TF-Mec1 1–500aa (P38111 1-500): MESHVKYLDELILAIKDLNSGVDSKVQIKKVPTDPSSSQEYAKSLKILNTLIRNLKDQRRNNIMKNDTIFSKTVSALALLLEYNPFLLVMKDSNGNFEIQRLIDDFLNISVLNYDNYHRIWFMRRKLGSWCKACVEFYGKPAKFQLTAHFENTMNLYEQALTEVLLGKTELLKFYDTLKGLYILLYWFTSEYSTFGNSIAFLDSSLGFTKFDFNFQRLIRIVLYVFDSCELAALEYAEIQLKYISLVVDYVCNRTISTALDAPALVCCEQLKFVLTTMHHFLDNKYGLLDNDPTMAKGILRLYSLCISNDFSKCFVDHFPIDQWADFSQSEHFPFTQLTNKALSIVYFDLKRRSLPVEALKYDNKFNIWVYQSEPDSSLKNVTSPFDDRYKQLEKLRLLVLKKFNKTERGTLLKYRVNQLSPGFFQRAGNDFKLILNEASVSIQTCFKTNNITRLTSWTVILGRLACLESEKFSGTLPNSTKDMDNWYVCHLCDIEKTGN

binding result: binds
B1: GST–Atg13 460–640aa (domain or fragment, Saccharomyces cerevisiae, UniProt Q06628 460-640, looked up)
chain: ESQEDLMDFVKLLEEKPDLTIKKTSGNNPPNINISDSLIRYQNLKPSNDLLSEDLSVSLSMDPNHTYHRGRSDSHSPLPSISPSMHYGSLNSRMSQGANASHLIARGGGNSSTSALNSRRNSLDKSSNKQGMSGLPPIFGGESTSYHHDNKIQKYNQLGVEEDDDDENDRLLNQMGNSATK
